Measured values taken from paper PMC5053661, “Human papillomavirus oncogenic E6 protein regulates human β-defensin 3 (hBD3) expression via the tumor suppressor protein p53”.

Target: p53 (UniProt P04637 1-393)
Assay: EMSA; 100 ng p53, 100 nM probe; EMSA: 100 ng recombinant p53, 100 nM annealed biotin probe; binding buffer, salt, pH and temperature not given (ref 63)
Conditions: protein: commercial, chain copies: 4, label: 3'-biotin

Chain of p53 (P04637 whole entry): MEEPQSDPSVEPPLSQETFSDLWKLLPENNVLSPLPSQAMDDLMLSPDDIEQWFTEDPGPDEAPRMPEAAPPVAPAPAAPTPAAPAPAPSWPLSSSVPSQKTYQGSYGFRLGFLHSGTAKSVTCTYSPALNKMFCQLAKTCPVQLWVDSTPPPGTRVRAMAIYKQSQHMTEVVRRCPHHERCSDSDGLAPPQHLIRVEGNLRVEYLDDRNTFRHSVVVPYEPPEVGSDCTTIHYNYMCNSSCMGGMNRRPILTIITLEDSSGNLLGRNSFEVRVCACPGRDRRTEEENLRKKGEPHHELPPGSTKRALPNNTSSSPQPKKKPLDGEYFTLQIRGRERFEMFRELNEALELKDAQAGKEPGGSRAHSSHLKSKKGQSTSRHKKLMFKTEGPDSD

B1: hBD3 -1339 mutant probe (dsDNA)
DNA 1: TGACTGTCGACCCATCTACCTGGCCCTAAATTG
DNA 2: CAATTTAGGGCCAGGTAGATGGGTCGACAGTCA
  binding result: no binding

B2: hBD3 promoter -1339 p53 probe (dsDNA)
DNA 1: TGACTGTCTGCCCATCTACCTGGCCCTACAT
DNA 2: ATGTAGGGCCAGGTAGATGGGCAGACAGTCA
  binding result: binds
